From US20180207191A1, “HUMAN CANCER MICRO-RNA EXPRESSION PROFILES PREDICTIVE OF CHEMO-RESPONSE” (H. LEE MOFFITT CANCER CENTER AND RESEARCH INSTITUTE, INC., priority 2010, published 2018)

B1: Pre-miR-367: precursor of miR-367 purchased from Ambion; exemplified pre-miR367 precursor sequence SEQ ID NO:158 (nucleic acid)
chain: CCAUUACUGUUGCUAAUAUGCAACUCUGUUGAAUAUAAAUUGGAAUUGCACUUUAGCAAUGGUGAUGG
modifications: listed as RNA, chemistry not given here

How the values were obtained:
[1] = test system: renal cell line 786-0; conditions: 786-0 renal cell line; publicly available GI50; cited from earlier work
[2] = test system: renal cell line TK-10; conditions: TK-10 renal cell line; publicly available GI50; cited from earlier work
[3] = test system: miR-367; assay: Real-time quantitative RT-PCR of miR-367 after transfection, 786-0 cells; format: cell-based, human; conditions: 50 nM final, QPCR normalized to RNU44
Experimental: (§1) miR-367 Transfection. Pre-miR-367 and Anti-miR-367 were purchased from Ambion. Log-phase cells (˜60% confluency) were transfected with 6.25 μM Pre-miR-367 or Anti-miR-367 using siPORT NeoFX transfection reagent (Ambion) at a final concentration of 50 nM according to manufacturer's instructions. Controls included transfection of a non-targeting miRNA (Negative Control #1).
(§2) Real-time Quantitative RT-PCR of miRNA. Real-time Quantitative RT-PCR was used to validate successful miRNA transfection. TaqMan®MicroRNA Reverse Transcription kit (Applied Biosystems) was used to convert specific miRNAs to cDNA. RNU44 was used as control for quantification. Per Applied Biosystems' protocol, real-time PCR was performed adding 1.34 μl of each completed RT reaction to target TaqMan microRNA Assay reaction with TaqMan Universal PCR Master Mix (final reaction volume equal 20 μl). Samples (786-0 and TK-10 cell lines transfected with Pre-miR-367 precursor, Anti-miR-367 inhibitor, and Anti-miR-inhibitor Negative Control #1) were evaluated in triplicate and run on the Applied Biosystems 7900HT Fast Real-Time PCR System. Assay data was analyzed using SDS 2.2.2 software.

[4] = test system: miR-367; assay: Real-time quantitative RT-PCR of miR-367 after transfection, TK-10 cells; format: cell-based, human; conditions: 50 nM final, QPCR normalized to RNU44
Experimental: as §1, §2

[5] = test system: 786-0 cells; assay: Growth inhibition assay (CellTiter-Glo), topotecan after miR-367 modulation; format: cell-based, human; conditions: 786-0 cells (topotecan sensitive, high miR-367), topotecan 48 hours, 24 hours after transfection
Experimental: as §1
(§3) Growth inhibition assay. Topotecan, obtained from Sequola Research Products Ltd, was dissolved in DMSO (Sigma) at concentration of 20 mM and stored at −20° C. Cells were seeded in 96-well plates (Nunc) at a density of 5×10^5 cells per ml and incubated overnight at 37° C. Cells were incubated with the indicated concentrations of topotecan for 48 hours and cell viability was analyzed using the CellTiter-Glo™ luminescent cell viability assay kit (Promega). Luminescence was recorded using Wallac Victor^2™ 1420 Multilabel Counter (Perkin Elmer Life Sciences). Wells containing medium without cells were used to obtain background luminescence. All experimental wells and controls were set up in triplet.
(§4) The effects of miR-367 modulation on topotecan-induced cell death and growth arrest were evaluated using the CellTiter-Glo' luminescent cell viability assay (FIG. 2). Twenty-four hours after transfection, cells were subject to 48 hours of topotecan treatment.

[6] = test system: TK-10 cells; assay: as above; format: cell-based, human; conditions: TK-10 cells (topotecan resistant, low miR-367), topotecan 48 hours, 24 hours after transfection
Experimental: as §1, §3, §4

| Molecule | log10 GI50 [1] | log10 GI50 [2] | miR-367 levels compared to non-targeting miRNA control [3] | miR-367 levels compared to non-targeting miRNA control [4] | change in sensitivity to topotecan-induced cell death and growth arrest vs non-targeting control [5] | change in sensitivity to topotecan-induced cell death and growth arrest vs non-targeting control ([5]; listed as pre-miR-367) | change in sensitivity to topotecan-induced cell death and growth arrest vs non-targeting control [6] | change in sensitivity to topotecan-induced cell death and growth arrest vs non-targeting control ([6]; listed as miR-367 precursor) | change in sensitivity to topotecan-induced cell death and growth arrest vs non-targeting control ([6]; listed as pre-miR-367) | change in sensitivity to topotecan-induced cell death and growth arrest vs non-targeting control ([6]; listed as precursor to miR-367) |
| --- | --- | --- | --- | --- | --- | --- | --- | --- | --- | --- |
| CC[C@@]1(O)C(=O)OCc2c1cc1n(c2=O)Cc2cc3c(CN(C)C)c(O)ccc3nc2-1 [Topotecan] | −7.903 | −5.279 | – | – | – | – | – | – | – | – |
| B1 | – | – | increase | increase | No differences in topotecan sensitivity | increase in topotecan-induced cell death | significantly increased cell death and growth arrest induced by topotecan | increased sensitivity to topotecan | increase in topotecan-induced cell death | significant increase in topotecan-induced cell death and growth arrest |
